Measured values as given in PMC5063977 (The Journal of Biological Chemistry, 2016).

Assays:
[1] = biological target: RAMP3-CLR complex expressed in HEK-293 cells (human) (UniProt Q16602)
[2] = biological target: RAMP1-CLR complex expressed in HEK-293 cells (human) (UniProt Q16602)
[3] = biological target: RAMP2-CLR complex expressed in HEK-293 cells (human) (UniProt Q16602)
[4] = biological target: RAMP3-CLR heterodimer expressed in S. cerevisiae (human) (UniProt Q16602)
[5] = biological target: RAMP2-CLR heterodimer expressed in S. cerevisiae (human) (UniProt Q16602)
[6] = biological target: RAMP1-CLR heterodimer expressed in S. cerevisiae (human) (UniProt Q16602)
[7] = biological target: RAMP3-CLR complex expressed in HEK-293 cells (human) (UniProt Q16602); remark: listed apart in the source
[8] = biological target: RAMP1-CLR complex expressed in HEK-293S cells (human) (UniProt Q16602)
[9] = biological target: RAMP1-CLR complex expressed in HEK-293 cells (human) (UniProt Q16602); remark: listed apart in the source
[10] = biological target: RAMP3-CLR complex expressed in HEK-293S cells (human) (UniProt Q16602)
[11] = biological target: RAMP2-CLR complex expressed in HEK-293S cells (human) (UniProt Q16602)
[12] = biological target: RAMP2-CLR complex expressed in HEK-293 cells (human) (UniProt Q16602); remark: listed apart in the source
[13] = biological target: RAMP3-CLR complex expressed in HEK-293 cells (human) (UniProt Q16602); remark: listed apart in the source
[14] = biological target: RAMP1-CLR complex expressed in HEK-293 cells (human) (UniProt Q16602); remark: listed apart in the source
[15] = biological target: RAMP2-CLR complex expressed in HEK-293 cells (human) (UniProt Q16602); remark: listed apart in the source
[16] = biological target: RAMP1-CLR complex expressed in HEK-293S cells (human) (UniProt Q16602); remark: listed apart in the source
[17] = biological target: RAMP3-CLR complex expressed in HEK-293S cells (human) (UniProt Q16602); remark: listed apart in the source
[18] = biological target: RAMP2-CLR complex expressed in HEK-293S cells (human) (UniProt Q16602); remark: listed apart in the source

Sequence of RAMP2-CLR complex expressed in HEK-293 cells (human) (Q16602 23-461, chain 1 of 2): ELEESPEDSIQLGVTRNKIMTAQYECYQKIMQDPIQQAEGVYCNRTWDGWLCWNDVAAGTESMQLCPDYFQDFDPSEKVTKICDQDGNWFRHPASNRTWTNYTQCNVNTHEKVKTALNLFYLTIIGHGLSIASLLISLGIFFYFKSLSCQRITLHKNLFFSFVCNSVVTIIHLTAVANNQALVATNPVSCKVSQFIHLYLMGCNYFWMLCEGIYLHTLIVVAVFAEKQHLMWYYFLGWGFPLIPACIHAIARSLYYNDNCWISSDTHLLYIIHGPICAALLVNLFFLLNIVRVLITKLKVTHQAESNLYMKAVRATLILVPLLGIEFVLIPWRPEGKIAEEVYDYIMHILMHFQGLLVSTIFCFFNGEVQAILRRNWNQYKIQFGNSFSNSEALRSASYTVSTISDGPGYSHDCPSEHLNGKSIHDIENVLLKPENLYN
Sequence of RAMP2-CLR complex expressed in HEK-293 cells (human) (O60895 43-175, chain 2 of 2, further chain): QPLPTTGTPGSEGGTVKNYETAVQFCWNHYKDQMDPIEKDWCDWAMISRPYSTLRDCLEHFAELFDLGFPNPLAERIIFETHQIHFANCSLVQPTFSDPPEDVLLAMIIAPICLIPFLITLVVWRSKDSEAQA
Sequence of RAMP2-CLR complex expressed in HEK-293S cells (human) (Q16602 23-461, chain 1 of 2): as the sequence (Q16602 23-461, chain 1 of 2) above
Sequence of RAMP2-CLR complex expressed in HEK-293S cells (human) (O60895 43-175, chain 2 of 2, further chain): as the sequence (O60895 43-175, chain 2 of 2, further chain) above
Sequence of RAMP3-CLR complex expressed in HEK-293 cells (human) (Q16602 23-461, chain 1 of 2): as the sequence (Q16602 23-461, chain 1 of 2) above
Sequence of RAMP3-CLR complex expressed in HEK-293 cells (human) (O60896 24-148, chain 2 of 2, further chain): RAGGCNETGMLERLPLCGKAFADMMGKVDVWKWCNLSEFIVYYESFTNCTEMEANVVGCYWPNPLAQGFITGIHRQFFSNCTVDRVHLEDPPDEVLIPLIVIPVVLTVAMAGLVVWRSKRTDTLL
Sequence of RAMP3-CLR heterodimer expressed in S. cerevisiae (human) (Q16602 23-461, chain 1 of 2): as the sequence (Q16602 23-461, chain 1 of 2) above
Sequence of RAMP3-CLR heterodimer expressed in S. cerevisiae (human) (O60896 24-148, chain 2 of 2, further chain): as the sequence (O60896 24-148, chain 2 of 2, further chain) above
Sequence of RAMP1-CLR complex expressed in HEK-293S cells (human) (Q16602 23-461, chain 1 of 2): as the sequence (Q16602 23-461, chain 1 of 2) above
Sequence of RAMP1-CLR complex expressed in HEK-293S cells (human) (O60894 27-148, chain 2 of 2, further chain): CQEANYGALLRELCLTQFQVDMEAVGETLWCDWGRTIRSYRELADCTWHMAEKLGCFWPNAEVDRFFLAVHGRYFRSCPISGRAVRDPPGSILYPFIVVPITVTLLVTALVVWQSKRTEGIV
Sequence of RAMP1-CLR complex expressed in HEK-293 cells (human) (Q16602 23-461, chain 1 of 2): as the sequence (Q16602 23-461, chain 1 of 2) above
Sequence of RAMP1-CLR complex expressed in HEK-293 cells (human) (O60894 27-148, chain 2 of 2, further chain): as the sequence (O60894 27-148, chain 2 of 2, further chain) above
Sequence of RAMP2-CLR heterodimer expressed in S. cerevisiae (human) (Q16602 23-461, chain 1 of 2): as the sequence (Q16602 23-461, chain 1 of 2) above
Sequence of RAMP2-CLR heterodimer expressed in S. cerevisiae (human) (O60895 43-175, chain 2 of 2, further chain): as the sequence (O60895 43-175, chain 2 of 2, further chain) above
Sequence of RAMP3-CLR complex expressed in HEK-293S cells (human) (Q16602 23-461, chain 1 of 2): as the sequence (Q16602 23-461, chain 1 of 2) above
Sequence of RAMP3-CLR complex expressed in HEK-293S cells (human) (O60896 24-148, chain 2 of 2, further chain): as the sequence (O60896 24-148, chain 2 of 2, further chain) above
Sequence of RAMP1-CLR heterodimer expressed in S. cerevisiae (human) (Q16602 23-461, chain 1 of 2): as the sequence (Q16602 23-461, chain 1 of 2) above
Sequence of RAMP1-CLR heterodimer expressed in S. cerevisiae (human) (O60894 27-148, chain 2 of 2, further chain): as the sequence (O60894 27-148, chain 2 of 2, further chain) above

Substance: hAM2 (1–47) (peptide)
- pEC50, cAMP accumulation in HEK-293 cells, with PTX pretreatment [1]: 8.74 -log10
- pEC50, cAMP accumulation in HEK-293 cells, without PTX [1]: 9.1 -log10
- pKa (operational model of agonism), cAMP accumulation in HEK-293 cells, with PTX pretreatment [1]: 8.43 -log10
- pKa (operational model of agonism), cAMP accumulation in HEK-293 cells, without PTX [1]: 9.08 -log10
- pEC50, cAMP accumulation in HEK-293 cells, with PTX pretreatment [2]: 9.15 -log10
- pEC50, cAMP accumulation in HEK-293 cells, without PTX [2]: 7.93 -log10
- pKa (operational model of agonism), cAMP accumulation in HEK-293 cells, with PTX pretreatment [2]: 8.56 -log10
- pKa (operational model of agonism), cAMP accumulation in HEK-293 cells, without PTX [2]: 7.7 -log10
- pKa (operational model of agonism), cAMP accumulation in HEK-293 cells, with PTX pretreatment [3]: 8.84 -log10
- pEC50, yeast growth reporter, GPA1/Gαi chimera strain [4]: 8.49 -log10
- pEC50, yeast growth reporter, GPA1/Gαq chimera strain [4]: 6.76 -log10
- pEC50, yeast growth reporter, GPA1/Gαs chimera strain [4]: 8.85 -log10
- pKa (operational model of agonism), yeast growth reporter, GPA1/Gαi chimera strain [4]: 8.3 -log10
- pKa (operational model of agonism), yeast growth reporter, GPA1/Gαq chimera strain [4]: 6.6 -log10
- pKa (operational model of agonism), yeast growth reporter, GPA1/Gαs chimera strain [4]: 8.61 -log10
- pEC50, yeast growth reporter, GPA1/Gαi chimera strain [5]: 8.42 -log10
- pEC50, yeast growth reporter, GPA1/Gαq chimera strain [5]: 9.22 -log10
- pEC50, yeast growth reporter, GPA1/Gαs chimera strain [5]: 8.05 -log10
- pKa (operational model of agonism), yeast growth reporter, GPA1/Gαi chimera strain [5]: 8.3 -log10
- pKa (operational model of agonism), yeast growth reporter, GPA1/Gαq chimera strain [5]: 9.16 -log10
- pKa (operational model of agonism), yeast growth reporter, GPA1/Gαs chimera strain [5]: 8.1 -log10
- pEC50, yeast growth reporter, GPA1/Gαi chimera strain [6]: 8.57 -log10
- pEC50, yeast growth reporter, GPA1/Gαq chimera strain [6]: 7.99 -log10
- pEC50, yeast growth reporter, GPA1/Gαs chimera strain [6]: 7.22 -log10
- pKa (operational model of agonism), yeast growth reporter, GPA1/Gαi chimera strain [6]: 8.24 -log10
- pKa (operational model of agonism), yeast growth reporter, GPA1/Gαq chimera strain [6]: 7.91 -log10
- pKa (operational model of agonism), yeast growth reporter, GPA1/Gαs chimera strain [6]: 7.31 -log10
- pEC50, (Ca^2+)i mobilization in HEK-293 cells [7]: 8.05 -log10
- pKa (operational model of agonism), (Ca^2+)i mobilization in HEK-293 cells [7]: 7.95 -log10
- pEC50, (Ca^2+)i mobilization in HEK-293S cells [8]: 6.94 -log10
- pKa (operational model of agonism), (Ca^2+)i mobilization in HEK-293S cells [8]: 6.76 -log10
- pEC50, (Ca^2+)i mobilization in HEK-293 cells [9]: 6.76 -log10
- pKa (operational model of agonism), (Ca^2+)i mobilization in HEK-293 cells [9]: 6.64 -log10
- pEC50, (Ca^2+)i mobilization in HEK-293S cells [10]: 7.44 -log10
- pKa (operational model of agonism), (Ca^2+)i mobilization in HEK-293S cells [10]: 7.35 -log10
- pEC50, (Ca^2+)i mobilization in HEK-293S cells [11]: 7.42 -log10
- pKa (operational model of agonism), (Ca^2+)i mobilization in HEK-293S cells [11]: 7.33 -log10
- pEC50, (Ca^2+)i mobilization in HEK-293 cells [12]: 7.41 -log10
- pKa (operational model of agonism), (Ca^2+)i mobilization in HEK-293 cells [12]: 7.15 -log10
- pEC50, cAMP accumulation in HEK-293 cells [13]: 9.14 -log10
- pKa (operational model of agonism), cAMP accumulation in HEK-293 cells [13]: 9 -log10
- pEC50, cAMP accumulation in HEK-293 cells [14]: 7.93 -log10
- pKa (operational model of agonism), cAMP accumulation in HEK-293 cells [14]: 7.76 -log10
- pEC50, cAMP accumulation in HEK-293 cells [15]: 7.48 -log10
- pKa (operational model of agonism), cAMP accumulation in HEK-293 cells [15]: 7.16 -log10
- pEC50, cAMP accumulation in HEK-293S cells, with PTX pretreatment [16]: 8.78 -log10
- pEC50, cAMP accumulation in HEK-293S cells, without PTX [16]: 8.74 -log10
- pEC50, cAMP accumulation in HEK-293S cells, with PTX pretreatment [17]: 7.79 -log10
- pEC50, cAMP accumulation in HEK-293S cells, without PTX [17]: 8.01 -log10
- pEC50, cAMP accumulation in HEK-293S cells, without PTX [18]: 8.57 -log10
